From publication PMC12207370, “Macrocyclic Peptide Probes for Immunomodulatory Protein CD59: Potent Modulators of Bacterial Toxin Activity and Antibody‐Dependent Cytotoxicity” (Angewandte Chemie (International Ed. in English), 2025)

Target: T1, biotinylated CD59 (Homo sapiens, UniProt P13987)
T1 construct: Recombinant soluble human CD59 with an additional C-terminal cysteine residue
T1 sequence (P13987 26-102 limits assumed): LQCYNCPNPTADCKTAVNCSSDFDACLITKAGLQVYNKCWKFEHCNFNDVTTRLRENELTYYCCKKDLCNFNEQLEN
Experiment: mRNA-display cyclic peptide screen against CD59-biotin, NGS abundance after 6th selection round
Conditions: for Counts (raw counts for peptide sequence), Seq I: NGS sample Seq I; for Counts (raw counts for peptide sequence), Seq I / Counts (raw counts for peptide sequence), Seq II / Counts Seq I / Counts Seq II: sheet R6 (6th selection round); for Counts (raw counts for peptide sequence), Seq II: NGS sample Seq II; for Percentage of the pool, averaged across the two sequencing samples: average of Seq I and Seq II; for Percentage of the pool, averaged across the two sequencing samples / Percentage of the pool, Seq I / Percentage of the pool, Seq II / Percentage Seq I / Percentage Seq II / Percentage Average: sheet R6; for Percentage of the pool, Seq I: counts normalised by total counts of NGS sample Seq I; for Percentage of the pool, Seq II: counts normalised by total counts of NGS sample Seq II; for Percentage Seq I: counts normalised by total counts of sample Seq I; for Percentage Seq I / Percentage Seq II: percentage of the pool; for Percentage Seq II: counts normalised by total counts of sample Seq II; for Percentage Average: percentage of the pool averaged across the two sequencing samples; for Counts Seq I / Counts Seq II: raw NGS counts of peptide sequence; for Counts Seq I: sequencing sample Seq I; for Counts Seq II: sequencing sample Seq II
Procedure, shortened: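 Peptide–mRNA fusions were made by in vitro translation with a customised PURE express kit. The kit lacked release factor 1 and methionine and was supplemented with […] initiator tRNA carrying N-chloroacetyl-d-tyrosine. Thioether macrocycles were formed, then enriched and amplified over iterative rounds on CD59-biotin immobilised on streptavidin beads. NGS read counts per sequence were recorded after the 6th selection round.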

| Sequence | Counts (raw counts for peptide sequence), Seq I | Counts (raw counts for peptide sequence), Seq II | Percentage of the pool, averaged across the two sequencing samples [%] | Percentage of the pool, Seq I [%] | Percentage of the pool, Seq II [%] | Percentage Seq I [%] | Percentage Seq II [%] | Percentage Average [%] | Counts Seq I | Counts Seq II |
| --- | --- | --- | --- | --- | --- | --- | --- | --- | --- | --- |
| SWTWGNRSSVLG | 35 | 7 | 0.012 | 0.008 | 0.016 | – | – | – | – | – |
| YAFGSRDITYY | – | – | – | – | – | 0.018 | 0.023 | 0.021 | 78 | 10 |
| CFSYRIRSAYDL | – | – | – | – | – | 0.028 | 0.030 | 0.029 | 124 | 13 |
| YVYGSRDRC | 74 | 5 | 0.014 | 0.017 | 0.012 | – | – | – | – | – |
| CFAGRLTIGAV | – | – | – | – | – | 0.056 | 0.056 | 0.056 | 245 | 24 |
| TLSTNRDLIRLLAAAAAAARTGGG | 57 | 9 | 0.017 | 0.013 | 0.021 | – | – | – | – | – |
| FVFGNRHFRTE | – | – | – | – | – | 0.408 | 0.492 | 0.450 | 1785 | 212 |
| CPQLILRGWQ | – | – | – | – | – | 0.030 | 0.044 | 0.037 | 133 | 19 |
| CFQNRVTSDSAK | – | – | – | – | – | 0.160 | 0.142 | 0.151 | 702 | 61 |
| CFVLRRNFEGT | 53 | 5 | 0.012 | 0.012 | 0.012 | – | – | – | – | – |
| QPFWGCRTVAYS | – | – | – | – | – | 0.033 | 0.049 | 0.041 | 144 | 21 |
| SKNGLTFLCN | – | – | – | – | – | 0.181 | 0.211 | 0.196 | 794 | 91 |
| RYGGRTFIYAWS | – | – | – | – | – | 0.025 | 0.026 | 0.025 | 111 | 11 |
| HCWVRGSRNYT | – | – | – | – | – | 2.570 | 2.548 | 2.559 | 11242 | 1098 |
| ILGSRDTIKYW | – | – | – | – | – | 0.118 | 0.167 | 0.142 | 515 | 72 |
| CLDKWGRLWS | – | – | – | – | – | 0.911 | 0.754 | 0.833 | 3987 | 325 |
| CFRSRAVSNGT | 57 | 8 | 0.016 | 0.013 | 0.019 | – | – | – | – | – |
| ARGGPTWSRG | – | – | – | – | – | 0.034 | 0.037 | 0.035 | 147 | 16 |

| Sequence | Counts (raw counts for peptide sequence), Seq I | Counts (raw counts for peptide sequence), Seq II | Percentage of the pool, averaged across the two sequencing samples [%] | Percentage of the pool, Seq I [%] | Percentage of the pool, Seq II [%] | Percentage Seq I [%] | Percentage Seq II [%] | Percentage Average [%] | Counts Seq I | Counts Seq II |
| --- | --- | --- | --- | --- | --- | --- | --- | --- | --- | --- |
| LWGTHSYTYYRP | 60 | 4 | 0.011 | 0.014 | 0.009 | – | – | – | – | – |
| FVRGDLYSVIG | 54 | 6 | 0.013 | 0.012 | 0.014 | – | – | – | – | – |
| GYLNECHTLYTR | – | – | – | – | – | 0.629 | 0.645 | 0.637 | 2754 | 278 |
| HVFGNGSFTRG | – | – | – | – | – | 0.031 | 0.035 | 0.033 | 137 | 15 |
| WIYGGRHFRLS | 82 | 2 | 0.012 | 0.019 | 0.00464 | – | – | – | – | – |
| SSWAQVPCYS | – | – | – | – | – | 0.040 | 0.032 | 0.036 | 175 | 14 |
| IALGDRTFSFG | – | – | – | – | – | 0.366 | 0.334 | 0.350 | 1603 | 144 |
| CFTYRLSDEPSA | – | – | – | – | – | 0.039 | 0.016 | 0.027 | 169 | 7 |
| CFGGRTFIYAWS | 34 | 5 | 0.010 | 0.008 | 0.012 | – | – | – | – | – |
| FIRGNSTSVPF | 46 | 4 | 0.010 | 0.011 | 0.009 | – | – | – | – | – |
| CFARRLSASSGT | – | – | – | – | – | 0.024 | 0.028 | 0.026 | 106 | 12 |
| YVFGNRSFTRG | – | – | – | – | – | 0.504 | 0.524 | 0.514 | 2205 | 226 |
| WIRGSRWWTQS | – | – | – | – | – | 0.033 | 0.035 | 0.034 | 146 | 15 |
| CFSARAIHGSL | 38 | 6 | 0.011 | 0.009 | 0.014 | – | – | – | – | – |
| CFSSRTSLISGV | 27 | 6 | 0.010 | 0.006 | 0.014 | – | – | – | – | – |
| SAWGNRRIQYY | – | – | – | – | – | 0.034 | 0.037 | 0.035 | 148 | 16 |
| FVTGNRDHARG | – | – | – | – | – | 0.029 | 0.035 | 0.032 | 126 | 15 |
